Results as given in patent US20090208416A1.

How the values were obtained:
[1] = target: NKG2A on rhesus monkey (Macaca mulatta) NK cells (rhesus monkey (Macaca mulatta)) (UniProt Q9MZJ3); test: FACS rhesus whole blood, animal O967
[2] = target: NKG2A on rhesus monkey (Macaca mulatta) NK cells (rhesus monkey (Macaca mulatta)) (UniProt Q9MZJ3); test: FACS rhesus whole blood, animal 31828
[3] = target: NKG2A on rhesus monkey (Macaca mulatta) NK cells (rhesus monkey (Macaca mulatta)) (UniProt Q9MZJ3); test: FACS rhesus whole blood, animal 34459
[4] = target: NKG2A on rhesus monkey (Macaca mulatta) NK cells (rhesus monkey (Macaca mulatta)) (UniProt Q9MZJ3); test: FACS rhesus whole blood, animal R00013
[5] = target: NKG2A on rhesus monkey (Macaca mulatta) NK cells (rhesus monkey (Macaca mulatta)) (UniProt Q9MZJ3); test: FACS rhesus whole blood, animal R00023
[6] = target: NKG2A on rhesus monkey (Macaca mulatta) NK cells (rhesus monkey (Macaca mulatta)) (UniProt Q9MZJ3); test: FACS rhesus whole blood, animal R00055
[7] = target: NKG2A on rhesus monkey (Macaca mulatta) NK cells (rhesus monkey (Macaca mulatta)) (UniProt Q9MZJ3); test: FACS rhesus whole blood, animal R00061
[8] = target: NKG2A on rhesus monkey (Macaca mulatta) NK cells (rhesus monkey (Macaca mulatta)) (UniProt Q9MZJ3); test: FACS rhesus whole blood, animal R00101
[9] = target: NKG2A on cynomolgus monkey NK cells (cynomolgus monkey) (UniProt Q68VD2); test: FACS cynomolgus whole blood, animal 1221
Sequence of UniProt Q68VD2 (Q68VD2 entry or part of it): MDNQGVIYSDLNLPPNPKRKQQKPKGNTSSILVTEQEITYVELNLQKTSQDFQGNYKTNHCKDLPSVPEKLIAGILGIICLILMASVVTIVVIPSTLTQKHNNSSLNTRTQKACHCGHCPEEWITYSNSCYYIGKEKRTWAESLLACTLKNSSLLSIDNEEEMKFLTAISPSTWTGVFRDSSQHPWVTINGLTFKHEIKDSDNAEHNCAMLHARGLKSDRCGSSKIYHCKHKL

[10] = target: NKG2A on cynomolgus monkey NK cells (cynomolgus monkey) (UniProt Q68VD2); test: FACS cynomolgus whole blood, animal M859
[11] = target: NKG2A on cynomolgus monkey NK cells (cynomolgus monkey) (UniProt Q68VD2); test: FACS cynomolgus whole blood, animal T270
[12] = target: NKG2A on cynomolgus monkey NK cells (cynomolgus monkey) (UniProt Q68VD2); test: FACS cynomolgus whole blood, animal T788
[13] = target: NKG2A on cynomolgus monkey NK cells (cynomolgus monkey) (UniProt Q68VD2); test: FACS cynomolgus whole blood, animal AK565
[14] = target: NKG2A on cynomolgus monkey NK cells (cynomolgus monkey) (UniProt Q68VD2); test: FACS cynomolgus whole blood, animal AK729
[15] = target: NKG2A on cynomolgus monkey NK cells (cynomolgus monkey) (UniProt Q68VD2); test: FACS cynomolgus whole blood, animal AL210
[16] = target: NKG2A on cynomolgus monkey NK cells (cynomolgus monkey) (UniProt Q68VD2); test: FACS cynomolgus whole blood, animal AL303
[17] = target: NKG2A on rhesus monkey (Macaca mulatta) NK cells (rhesus monkey (Macaca mulatta)) (UniProt Q9MZJ3); test: FACS rhesus whole blood NK cells, animal 201
[18] = target: NKG2A on baboon NK cells (baboon); test: FACS baboon whole blood NK cells, animal V989
[19] = target: NKG2A on baboon NK cells (baboon); test: FACS baboon whole blood NK cells, animal V992
[20] = target: NKG2A on baboon NK cells (baboon); test: FACS baboon whole blood NK cells, animal V999
[21] = target: NKG2A on rhesus monkey (Macaca mulatta) NK cells (rhesus monkey (Macaca mulatta)) (UniProt Q9MZJ3); test: FACS rhesus whole blood NK cells, animal CH256
[22] = target: NKG2A on rhesus monkey (Macaca mulatta) NK cells (rhesus monkey (Macaca mulatta)) (UniProt Q9MZJ3); test: FACS rhesus whole blood NK cells, animal N0401
[23] = target: NKG2A on rhesus monkey (Macaca mulatta) NK cells (rhesus monkey (Macaca mulatta)) (UniProt Q9MZJ3); test: FACS rhesus whole blood NK cells, animal N0404
[24] = target: NKG2A on rhesus monkey (Macaca mulatta) NK cells (rhesus monkey (Macaca mulatta)) (UniProt Q9MZJ3); test: FACS rhesus whole blood NK cells, animal PM021
[25] = target: NKG2A on rhesus monkey (Macaca mulatta) NK cells (rhesus monkey (Macaca mulatta)) (UniProt Q9MZJ3); test: FACS rhesus whole blood NK cells, animal RU925
[26] = target: NKG2A on baboon NK cells (baboon); test: FACS baboon whole blood NK cells, animal K938A
[27] = target: NKG2A on baboon NK cells (baboon); test: FACS baboon whole blood NK cells, animal PA977
[28] = target: NKG2A on baboon NK cells (baboon); test: FACS baboon whole blood NK cells, animal V857C
[29] = target: NKG2A on baboon NK cells (baboon); test: FACS baboon whole blood NK cells, animal V861B
[30] = target: NKG2A on baboon NK cells (baboon); test: FACS baboon whole blood NK cells, animal V918C
[31] = target: NKG2A on baboon NK cells (baboon); test: FACS baboon whole blood NK cells, animal V942A
[32] = target: NKG2A on baboon NK cells (baboon); test: FACS baboon whole blood NK cells, animal V9912
[33] = target: NKG2A on baboon NK cells (baboon); test: FACS baboon whole blood NK cells, animal V9926
[34] = target: NKG2A on rhesus monkey (Macaca mulatta) NK cells (rhesus monkey (Macaca mulatta)) (UniProt Q9MZJ3); test: FACS rhesus whole blood, animal R00073 (5.6 kg)

Sequence of UniProt Q9MZJ3 (Q9MZJ3 whole entry): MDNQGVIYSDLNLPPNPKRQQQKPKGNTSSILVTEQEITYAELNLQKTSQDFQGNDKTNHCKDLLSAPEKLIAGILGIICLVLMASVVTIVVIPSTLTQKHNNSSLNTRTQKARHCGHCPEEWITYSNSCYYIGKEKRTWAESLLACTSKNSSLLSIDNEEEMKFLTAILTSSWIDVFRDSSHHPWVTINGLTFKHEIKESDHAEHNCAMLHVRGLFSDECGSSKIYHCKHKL

mouse IgG1 isotype control (antibody)
% NK+ [1]: 0.5%
MFI [1]: 0.67
% NK+ [2]: 0.4%
MFI [2]: 0.65
% NK+ [3]: 1.4%
MFI [3]: 0.76
% NK+ [4]: 0.3%
MFI [4]: 0.66
% NK+ [5]: 0.3%
MFI [5]: 0.5
% NK+ [6]: 0.6%
MFI [6]: 0.7
% NK+ [7]: 0.5%
MFI [7]: 0.5
% NK+ [8]: 0.5%
MFI [8]: 0.58
% NK+ [9]: 0.6%
MFI [9]: 0.53
% NK+ [10]: 0.2%
MFI [10]: 0.51
% NK+ [11]: 0.2%
MFI [11]: 0.54
% NK+ [12]: 0.3%
MFI [12]: 0.5
% NK+ [13]: 0.6%
MFI [13]: 0.66
% NK+ [14]: 0.3%
MFI [14]: 0.6
% NK+ [15]: 0.4%
MFI [15]: 0.65
% NK+ [16]: 0.13%
MFI [16]: 0.63
% [17]: 1.3%
% [18]: 1.2%
tot. MFI [18]: 1.2
% [19]: 0.6%
tot. MFI [19]: 0.3
% [20]: 0.3%
tot. MFI [20]: 0.2
% [21]: 0.8%
% [22]: 0.5%
% [23]: 0.6%
% [24]: 0.8%
% [25]: 0.4%
% [26]: 0.3%
tot. MFI [26]: 0.3
% [27]: 0.9%
tot. MFI [27]: 1.1
% [28]: 0.8%
tot. MFI [28]: 1.4
% [29]: 0.2%
tot. MFI [29]: 0.6
% [30]: 0.3%
tot. MFI [30]: 1.1
% [31]: 1.7%
tot. MFI [31]: 1
% [32]: 0.2%
tot. MFI [32]: 0.2
% [33]: 0.5%
tot. MFI [33]: 0.2
% NK+ [34]: 0.5%
MFI [34]: 0.4
